{
  "source": "the nanobody polyreactivity screen of Harvey et al. (2022)",
  "data": [
    {"assay": "yeast display, Sf9 membrane polyspecificity reagent, FACS + sequencing; frameworks hold sequencing errors", "summary_of_the_method": "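After 36–48 hours of galactose induction, yeast (Saccharomyces cerevisiae BJ5465) displaying a synthetic nanobody library were stained at 4 °C for 1 hour with 10% biotinylated, detergent-solubilized Sf9 membrane reagent. Streptavidin microbeads enriched the stained cells before FACS sorting into low and high (top ~1%) gates on anti-HA and streptavidin fluorescence. Each clone's polyreactivity label reflects its gate of origin.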", "values": [
      {"sequence": "QVQIVESRGGIVQAGGSLRLRCAASGSTFAGNAMGWYRQPPGKERELVAAITSSGGTTYYADSVKGRFTISRDNEKNTVYLQMNSLKPEDSAVYYCAAKSRRTRRSYYWGQGTQVNVSS", "polyreactivity (PSR sort gate)": "high polyreactivity"},
      {"sequence": "QVQIVESRVGLVQAGGSLRLSCAAYGSIFYYNAMGWYRQAPGKERELVAAITSSGGSTYADSVKGRFTISRDNAKNTVYLQMNSLKQEDTAVYYCATVAHGLWSGSGYIYAYDYWGQGTQVSVSS", "polyreactivity (PSR sort gate)": "low polyreactivity"},
      {"sequence": "QVQLAESGGGLVQAGGSLRLSCAASGSTFPRNPMGWYRQAPGKERELVATITSSGGGTYYADSVKGRFTISRDNAKITVYLQMNSLKPEDTAVYYCNADGPAGDAFDYWGQGTQVTVSS", "polyreactivity (PSR sort gate)": "low polyreactivity"},
      {"sequence": "QVQLAESGGRLVQAGGRLRLSCAASGRTSTCYAMGWYRQPPGKERELVAAISYRGGSTYYADSVKGRFTISRDNAKNSVYLHLNSLKPEDTAVYYCAAKWYWRGDYWGQGTQVTVSS", "polyreactivity (PSR sort gate)": "high polyreactivity"},
      {"sequence": "QVQLDESGGGLVQAGGSLRLSCAASGRTFGVYAMGWYRQAPGKERELVAAIRWSGGGTYYADSVKVRFTISRDNAKNTVYLQMNSLKPEDTAVYYCAATLENSPYTRYTDMYYWGQGTQVTVSS", "polyreactivity (PSR sort gate)": "low polyreactivity"},
      {"sequence": "QVQLEDSGGCLVQAGGRLRLSCAASGITYGRNTMGRYRQAPGKERELVAAIDSGGNTYADSVKGRFTISRDNAKITVYLQMNSLKPEDTAVYYCAVYGGEFSSYGYWGQGTQVTVSS", "polyreactivity (PSR sort gate)": "low polyreactivity"},
      {"sequence": "QVQLEDSGGGLVQAGGSLGLSCAASGITFSVYDMGWYRQAPGKERQLVAAISWSGGSTYYADSVKGRFTISRDNAKNTVFLQMNSLKPDDTAVYYCAAEVDYWYELYDYWGLGTQVTVSS", "polyreactivity (PSR sort gate)": "high polyreactivity"},
      {"sequence": "QVQLEDSGGGLVQAGGSLRLSCAASGGTFRYNSMGWYRPAPGKERELVAGITWGGGSTYYADSVKGRFTISRDYAKNSVYLQMNSLKPEDTAVYYCNAVRPRQWWTHYGYWGQGTQVTVSS", "polyreactivity (PSR sort gate)": "high polyreactivity"},
      {"sequence": "QVQLEDSGGGLVQAGGSLRLSCAASGRIFGYNAMGWYRQAPGKERELVAAITTSGGSTYYADSVKGRFTISRDNAKNTVYLQMNSLKPEDTAVYYCARDSLQVFYPYASDDYWGQGTQVTVSS", "polyreactivity (PSR sort gate)": "low polyreactivity"},
      {"sequence": "QVQLEDSGGGLVQAGGSLRLSCAASGRIFYAYAMGWYRPAPGKEREFVASISGSGGSTYYADSVKGRFTISRDNAKNTVYLQMNSLKPEDTAVYYCAKRYPFFSSGLSPYNYWGQGTQVTVSS", "polyreactivity (PSR sort gate)": "high polyreactivity"},
      {"sequence": "QVQLEDSGGGLVQAGGSLRLSCAASGSIFYSNSMGWYRQAPGKERELVAAISSSGSRTYYADSVKGRFTISRDNAKNTVYLQMNSLKPEYTAVYYCSAVIRYTRSYDYWGQGTQLTVSS", "polyreactivity (PSR sort gate)": "high polyreactivity"},
      {"sequence": "QVQLEDSGGGLVQAGGSLRLSSAASGSTFAVYAMGWYRQAPGKERELVAAISFSGSTYADSVKGRFTISRDNAKNTVYLQMNSLKPEDTAVYYCAKEYRVFGWWYTKGDYWGQGTQVTVSS", "polyreactivity (PSR sort gate)": "low polyreactivity"},
      {"sequence": "QVQLEDSGGGLVQAGRSLLLSFAASGNTFWLNAKGRYRQAPGKERELVAAITYTDGSTYADSVKGRFTISRDNAKITVYLQMNSLKPEDSAVYYCAARYQWDWRDYYYWGQGTQVTVSS", "polyreactivity (PSR sort gate)": "low polyreactivity"},
      {"sequence": "QVQLEEAGGGLVQAGGSLRLSCAASARIIARYAMGWYRQAPGKERELVAAITGSGGSTYYADSVKGLFTISRDHANNTVYLQMNCLKPEDTAVYYCAARSVYTYYRLDYWGQGTQVTVSS", "polyreactivity (PSR sort gate)": "high polyreactivity"},
      {"sequence": "QVQLEESGAGLVQAGGRLRLSCAASGITFILYAMGWYRHAPGKERELVAAISSGGRTKYADSEKGRFTISRDNAKNTVYLQMTSLKPEDTAVYYCNVSYLVYRWNFGWSMDYWGQGTQVTVSS", "polyreactivity (PSR sort gate)": "low polyreactivity"},
      {"sequence": "QVQLEESGAGLVQAGGSLRLSCAASGRTFYRYAMGWYIQAPGKERELVAAITSGDRTYYADSVKGRFTISRDNALNTVYLQMNSLKPEYTAVYYCAARRDYWARYYYWGQGTQVTVSS", "polyreactivity (PSR sort gate)": "high polyreactivity"},
      {"sequence": "QVQLEESGAGLVQAGGSLRLSCAASGYIFDKYTLGWYRQAPGKERELVAVISSRGGSTYYADSVKGRFTISRDNAKNTVYVQMNSRKPEDTAVYYCAARFYRPSVPYRYDYWGQGTQVTVSS", "polyreactivity (PSR sort gate)": "high polyreactivity"},
      {"sequence": "QVQLEESGGAFVQAGGSLRLSCAASGFIFVPYSMGWYREAPGKEREFVAAITASGGNTYYADSVKGRFSISRDNAKNTVYLQMNSVKPEDTAVYYCAADISGSLESLDYWGQGTQVTGSS", "polyreactivity (PSR sort gate)": "low polyreactivity"},
      {"sequence": "QVQLEESGGAIVQAAGSLRLSCAASGLIFAWYALGWYRPAPGKERELVATISWNGDRTYYADSVKGRFTISRDNAKNTVYLQMNSLKPEDTAVYYCAARFGSGFNYWGKGTQVTVSS", "polyreactivity (PSR sort gate)": "high polyreactivity"},
      {"sequence": "QVQLEESGGALVQAGGSLRLSGAASVSTFAYYAMGWYRQAPGKERELVAAISWSGGSTYYADSVKGRFTISRDNAKNTVYLLMNSLKPEDTAVYYCNKRNVLDYDYWGQGTQVTVSS", "polyreactivity (PSR sort gate)": "low polyreactivity"},
      {"sequence": "QVQLEESGGCLVQAGGSLRLSCAASGFTFYQNAMGWYRQAPGKERELVAAISSGASTYYADSVKGRFTISRDNAKNTVYLQMNSLKPEDTAVYYCAADRYKPSLRWRRPKMNYWGQGTQVTVSS", "polyreactivity (PSR sort gate)": "high polyreactivity"},
      {"sequence": "QVQLEESGGCLVQAGGSLRLSCAASGRIFGSYTMGWYRQAPGKERELVAAISDSGGSTYYADSVKGRFSISRDNAKNTVYLQMNSLKPEDTAVYYCNADWSWYNYYDFDYWGQGTQVTVSS", "polyreactivity (PSR sort gate)": "low polyreactivity"},
      {"sequence": "QVQLEESGGGFVQAGGSLRLSCAASGFIFSSNAMGWYRQAPGKERELVASISSGGSTNYADSVKGRFTISRDNAKNTVYLQMNSLKPEDTAVYYCAADGISLYATAYDYWGQGTQVTVSS", "polyreactivity (PSR sort gate)": "low polyreactivity"},
      {"sequence": "QVQLEESGGGIVQAGGSLRLSCAASGRIFYHYAMGGYRKAPGKEREWVAAISGSGGSTYYADSVKGGFTISRYNAKNTVYLQMNSLNPEDTAVFYCSTSGPQYYARNFDYCGQGTQVTVSS", "polyreactivity (PSR sort gate)": "low polyreactivity"},
      {"sequence": "QVQLEESGGGIVQAGGSLRLSCAASGSTFVLYAMGWYRPAPGKERELVAAITSGGSTYYADSVKGRFTISRDNAKNTVYLQMNSLKPEDTAVYYCAASYWDTEPGYREYDYWGQGTQVTVSS", "polyreactivity (PSR sort gate)": "low polyreactivity"},
      {"sequence": "QVQLEESGGGLDQAGGSLRLSCAASGRIFFYNAMGWYRQAPGKERELVAGISRSGTSTYYADSVKGRFTNSRDNAKNTVFLQMNSLKPEDTAVYYCAAAAWSVILWREMDYWGQGTQVTVSS", "polyreactivity (PSR sort gate)": "low polyreactivity"},
      {"sequence": "QVQLEESGGGLDQAGGSLRLSCAASGSTFYKNAMGWYRQAPGKERELVARISGRGGSTDYADSVKGRFTISRDNAKNTVYLQMNSLKPDDTAVYYCNAGKYSSSDALYDYWGQGTQVTVSS", "polyreactivity (PSR sort gate)": "high polyreactivity"},
      {"sequence": "QVQLEESGGGLFQAGGSLRLSCAASGRTFPGNAMGWYRQAPGKERELVAAISYSGGRTYYADSVKGRFTISRDNAKNTVYLQMNSLKPEDTAVYYCNAWARLGRYEYWGQGTQVTVSS", "polyreactivity (PSR sort gate)": "high polyreactivity"},
      {"sequence": "QVQLEESGGGLGQAGGSLRLSCAASGSIFAYYAMGWYRQAPGKERELVAAISWGGGNTYYADSVKGRFTISRDNAKNNVYLQMNSLKPEDTAVYYCAAEDYYYYGVAYGYWGQGSQVTVSS", "polyreactivity (PSR sort gate)": "high polyreactivity"},
      {"sequence": "QVQLEESGGGLVHAGGSLRLSCAASGFTFKYNAMGWYRQAPGKEREFVASISSGSTNYADSVKGRFTISRDNAKNTVYLQMNSLKPEDTAVYYCAASVSRGKRFRYGYVFKMDYWGQGTQVTVSS", "polyreactivity (PSR sort gate)": "low polyreactivity"},
      {"sequence": "QVQLEESGGGLVQAGCSLRLSCADSGITFGGNAMGWYRQAPGKERDLVAAIDEGGGSTYYADTVKGRFTLSRDNAKNTVYLQMHSLKPEPTAVDYCAADFGYYGYYYWGQGTQVTVST", "polyreactivity (PSR sort gate)": "low polyreactivity"},
      {"sequence": "QVQLEESGGGLVQAGGILRLSCAASGSMFVAYTMGWYRQEPGKERELVAAISRGGSTNYADSVKGRFTISRDNAKTTVYLQMNSLKPEDTAVYYCAAKVWDGQLLYYWGQGTQVTVSS", "polyreactivity (PSR sort gate)": "low polyreactivity"}
    ]}
  ]
}
